# Source: article PMC8809517, “Cofactor-independent RNA editing by a synthetic S-type PPR protein”
# Numbering of substitutions follows the chain as printed.
# T1: GFP-9S library array, motif 4 ND N98H;D124N (synthetic construct, N98H;D124N)
# T1 chain: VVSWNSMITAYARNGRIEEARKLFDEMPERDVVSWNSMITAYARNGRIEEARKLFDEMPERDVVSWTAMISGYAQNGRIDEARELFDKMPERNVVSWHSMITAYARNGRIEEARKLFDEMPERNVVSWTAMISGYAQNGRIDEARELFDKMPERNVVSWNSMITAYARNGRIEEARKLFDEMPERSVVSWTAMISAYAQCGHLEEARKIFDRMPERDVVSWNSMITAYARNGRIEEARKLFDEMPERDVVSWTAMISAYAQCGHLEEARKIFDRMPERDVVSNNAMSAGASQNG
# T2: GFP-9S library array, motif 4 ND N98K;D124P (synthetic construct, N98K;D124P)
# T2 chain: T1 chain with H98K, N124P
# T3: GFP-9S library array, motif 4 ND N98P;D124Y (synthetic construct, N98P;D124Y)
# T3 chain: T1 chain with H98P, N124Y
# T4: GFP-9S library array, motif 4 ND N98F;D124F (synthetic construct, N98F;D124F)
# T4 chain: T1 chain with H98F, N124F
# T5: GFP-9S library array, motif 4 ND N98S;D124E (synthetic construct, N98S;D124E)
# T5 chain: T1 chain with H98S, N124E
# Tests used:
# Experiment in all cases: high-throughput RNA pulldown from lysate on Ni-NTA beads; HRP: 50 mM Tris pH 8, 150 mM NaCl, 1 mM beta-mercaptoethanol, 50 ug/ml BSA, 3 ug/ml yeast RNA, 0.5% heparin; ITC and FP: Tris pH 8, 200 mM KCl, 5% glycerol; MST: 50 mM Tris pH 8, 200 mM NaCl, 1 mM DTT, BSA, heparin, 0.05% Tween 20
# Settings in all cases: tags: N-terminal His-eGFP
# [1] = biological target: T1, GFP-9S library array, motif 4 ND …
# [2] = biological target: T2, GFP-9S library array, motif 4 ND …
# [3] = biological target: T3, GFP-9S library array, motif 4 ND …
# [4] = biological target: T4, GFP-9S library array, motif 4 ND …
# [5] = biological target: T5, GFP-9S library array, motif 4 ND …
Binder,Kd ([1]; label: 5' Cy5) [nM],Kd ([2]; label: 5' Cy5) [nM],Kd ([3]; label: 5' Cy5) [nM],Kd ([4]; label: 5' Cy5) [nM],Kd ([5]; label: 5' Cy5) [nM],Kd ([1]; label: 5' IRDye 800CW) [nM],Kd ([2]; label: 5' IRDye 800CW) [nM],Kd ([3]; label: 5' IRDye 800CW) [nM],Kd ([4]; label: 5' IRDye 800CW) [nM],Kd ([5]; label: 5' IRDye 800CW) [nM]
AUUAGACGUGA (ssRNA) [Cy5-rpoA-G],149,105,168,92.1,122,–,–,–,–,–
AUUAAACGUGA (ssRNA) [IR-rpoA-A],–,–,–,–,–,189,194,416,200,70.5
AUUAUACGUGA (ssRNA) [IR-rpoA-U],–,–,–,–,–,30.8,76.4,299,140,201
AUUACACGUGA (ssRNA) [Cy5-rpoA],36.1,107,146,76.4,276,–,–,–,–,–
